Substitutions are numbered along the chain they refer to. Blank lines part the entries; values can stand above or below the binder they belong to.
What was measured:
[1] = target: T1, human EphA2 (human, UniProt P29317 24-976); assay: flow cytometry on A549 cells, antibody 10 µg/ml, PE anti-mouse Fc gamma; control: irrelevant antibody of the same isotype [A]
T1 construct: whole, on cells; also called EphA2 receptor
Protocol: FIGS. 10A-10B: Flow cytometric binding analysis of anti-EphA2 parental antibodies. EphA2 expressing A549 cells (human lung carcinoma cell line) (A), and MDA-MB-231 cells (human breast cancer) (B) were used. Cells (200,000) were incubated with 10 μg/ml of the respective antibody for 30 min on ice. The cells were subsequently washed twice in PBS. The binding of the primary antibody was detected via an phycoerythrin-conjugated murine Fc-gamma specific antibody (Dianova, order no. 115-116-071) diluted 1:100 in 50 μl PBS with 2% FCS. As negative control, an irrelevant antibody with the same isotype was used (thin line). Cells were analyzed by flow cytometry on a FACS-Calibur (Becton Dickinson, Heidelberg). […] The binding capabilities of the three different antibodies are shown in a histogram overlay (4th peak from left=B322 antibody; 3rd peak from left=EA2 antibody; 2nd peak from left=EA5 antibody; far left peak—control).
A flow cytometric analysis was performed to estimate the binding strength of the anti-EphA2 parental monoclonal antibodies […], EA2 and EA5 (FIG. 10). […] The binding of the primary antibody was detected via an phycoerythrin conjugated murine Fc-gamma specific antibody (Dianova, order no. 115-116-071) diluted 1:100 in […] PBS with 2% FCS. […] Cells were analyzed by flow cytometry on a FACS-Calibur (Becton Dickinson, Heidelberg).

[2] = target: T2, cynomolgus EphA2 (cynomolgus, UniProt Q1KL86 24-976); assay: flow cytometry on cynomolgus EphA2 transfected CHO cells, antibody 10 µg/ml, AlexaFluor 488 anti-mouse or anti-human IgG (H+L)
T2 construct: whole, on cells; also called cynomolgus EphA2 expressed on transfected CHO cells
T2 sequence (Q1KL86 24-976): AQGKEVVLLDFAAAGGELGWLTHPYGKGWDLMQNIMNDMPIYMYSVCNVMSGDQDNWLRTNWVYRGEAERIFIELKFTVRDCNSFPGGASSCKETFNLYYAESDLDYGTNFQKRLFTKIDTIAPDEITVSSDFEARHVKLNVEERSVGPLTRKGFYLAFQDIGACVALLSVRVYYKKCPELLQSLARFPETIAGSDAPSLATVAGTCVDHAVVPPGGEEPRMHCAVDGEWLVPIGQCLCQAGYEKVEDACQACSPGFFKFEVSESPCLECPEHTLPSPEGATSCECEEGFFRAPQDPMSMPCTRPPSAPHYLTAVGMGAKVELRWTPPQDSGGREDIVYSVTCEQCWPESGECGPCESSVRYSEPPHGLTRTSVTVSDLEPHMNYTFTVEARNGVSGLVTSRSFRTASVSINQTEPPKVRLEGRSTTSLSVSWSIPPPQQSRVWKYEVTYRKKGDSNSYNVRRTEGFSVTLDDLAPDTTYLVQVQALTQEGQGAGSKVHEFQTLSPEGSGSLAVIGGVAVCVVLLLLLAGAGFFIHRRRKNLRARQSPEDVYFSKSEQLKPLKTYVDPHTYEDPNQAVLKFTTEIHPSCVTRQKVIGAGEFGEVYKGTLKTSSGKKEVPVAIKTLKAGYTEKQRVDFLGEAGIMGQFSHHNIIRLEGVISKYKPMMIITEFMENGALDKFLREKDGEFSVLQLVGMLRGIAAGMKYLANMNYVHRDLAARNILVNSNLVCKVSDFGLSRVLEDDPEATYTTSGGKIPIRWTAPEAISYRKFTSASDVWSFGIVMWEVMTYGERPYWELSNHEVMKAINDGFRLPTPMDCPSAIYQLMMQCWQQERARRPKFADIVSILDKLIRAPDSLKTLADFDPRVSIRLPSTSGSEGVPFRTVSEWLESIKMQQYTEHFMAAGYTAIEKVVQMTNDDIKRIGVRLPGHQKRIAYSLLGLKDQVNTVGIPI
Protocol: Subconfluent monolayers of SW480 colon carcinoma or cynomolgus EphA2 transfected CHO cells were quickly trypsinized, washed, counted, plated into 96-well round bottom plates, and stained with 10 μg/ml of a negative control antibody (R347), the anti-human EphA2 murine antibody, EA2 (Coffman 2003), or humanized antibodies, 3F2 and 4H5. Cells were resuspended in AlexaFluor 488 anti-mouse or anti-human IgG H+L (Invitrogen) and then analyzed by flow cytometry using a FACSCalibur (Becton Dickinson).

[3] = target: T3, Human EphA2-Fc fusion protein (human, UniProt P29317 24-537); assay: SPR (Biacore 3000), soluble IgG on immobilized EphA2-Fc
T3 construct: extracellular domain; Expressed in HEK 293 cells; Biotinylated in the capture ELISAs; also called soluble EphA2 Fc fusion protein; not shown: Fc portion of a human IgG1

[4] = target: T1, human EphA2; assay: immunofluorescence microscopy of fixed monolayers of MCF-10A and MDA-MB-231 cells
Protocol: Monolayers of MCF-10A or MDA-MB-231 cells were cultured atop glass coverslips for at least 24 h at 37° C. before staining. Cell monolayers were fixed in 4% paraformaldehyde (2 min, 25° C.) before incubation with primary antibody (clone G5 (negative control), EA5, EA2, 3F2, or 4H5) for 30 min followed by subsequent staining with AlexaFluor 488-conjugated goat anti-mouse IgG or AlexaFluor 488-conjugated goat anti-human IgG (The Jackson Laboratory). Cells were fixed for analyses by immunofluorescence microscopy. […] The amino acid sequence of the VL and VH domains of the G5 antibody are depicted in FIG. 42.

[5] = target: T3, Human EphA2-Fc fusion protein; assay: SPR (BIAcore 3000), purified monomeric scFv, human EphA2
Protocol: (§1) 2A4, 2E7 and 12E2 as well as parental EA2 scFv and humanized 4H5 scFv were induced for expression in E. coli in a 1 L culture volume. The supernatants containing soluble, secreted scFv fragments were spun to remove cellular debris then passed over an anti-FLAG column (Sigma) to purify and isolate the variant proteins. The purified affinity optimized variants were analyzed by surface plasmon resonance detection using a BIAcore 3000 instrument (Pharmacia Biosensor, Uppsala, Sweden). […] For affinity measurement results, see the table in section 6.6, infra.

[6] = target: T3, Human EphA2-Fc fusion protein; assay: SPR (BIAcore 3000), KD against that of 4H5 scFv
Protocol: as §1

binding result [1]: binds
B1: anti-EphA2 antibody EA5 (antibody, V domains shown)
VH: EVQLQQSGPELVKTGASVKISCKASGYSFTGYYMHWVKQSHGKSLEWIGYISCYNGVTSYNQKFKGKATFTVDTSSSTAYMQFNSLTSEDSAVYYCARSHAMDYWGQGTSVTVSS
VL: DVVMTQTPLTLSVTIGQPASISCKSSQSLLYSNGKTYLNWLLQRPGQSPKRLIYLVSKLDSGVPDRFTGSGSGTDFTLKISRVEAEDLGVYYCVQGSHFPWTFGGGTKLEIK
notes: Murine monoclonal antibody; Hybridoma ATCC PTA-4381; also called mAb EA5

binding result [2]: binds
binding result [1]: binds
B2: anti-EphA2 antibody EA2 (antibody, V domains shown)
VH: DVKLVESGGGLVKPGGSLKLSCAASGFTFSSYTMSWVRQTPEKRLEWVATISSGGTYTYYPDSVKGRFTISRDNAKNTLYLQMSSLKSEDTAMYYCTREAIFTYWGQGTLVTVSA
VL: DIKMTQSPSSMYASLGERVTITCKASQDINNYLSWFQQKPGKSPKTLIYRANRLVDGVPSRFSGSGSGQDYSLTISSLEYEDMGIYYCLKYDEFPYTFGGGTKLEIK
notes: Murine monoclonal antibody; Hybridoma ATCC PTA-4380; also called mAb EA2

Kd [3]: 0.3 nM
koff [3]: 8e-05 s⁻¹
kon [3]: 240000 M⁻¹ s⁻¹
B3: Chimaeric B 233 (antibody, V domains shown)
VH: EVKLVESGGGLVQPGGSLSLSCAASGFTFTDYSMNWVRQPPGKALEWLGFIRNKANDYTTEYSASVKGRFTISRDNSQSILYLQMNALRAEDSATYYCVRYPRYHAMDSWGQGTSVTVSS
VL: DIVLTQSPATLSVTPGDSVNLSCRASQSISNNLHWYQQKSHESPRLLIKYVFQSISGIPSRFSGSGSGTDFTLSINSVETEDFGMYFCQQSNSWPLTFGAGTKLELK
notes: Soluble IgG with the B233 variable regions; also called chimaeric mAb B233; chimeric B233

binding result [2]: binds
Kd [3]: 0.671 nM
koff [3]: 0.000127 s⁻¹
kon [3]: 189000 M⁻¹ s⁻¹
B4: Affinity optimized 3F2 (antibody, human IgG1, V domains shown)
VH: EVQLVESGGGVVRPGGSLRLSCAASGFTVSDYSMNWVRQAPGKGLEWIGFIRNKANAYTTEYSASVKGRFTISRDDSKNTLYLQMNSLKTEDTAVYYCTTYPRYHAMDSWGQGTMVTVSS
VL: AIQLTQSPSSLSASVGDRVTITCRASQSISNNLHWYLQKPGQSPQLLIYYGFQSISGVPSRFSGSGSGTDFTLTISSLQPEDFATYYCQQANSWPLTFGGGTKLEIK
notes: human IgG1 with human kappa chain

binding result [4]: binds
B5: G5 (antibody, V domains shown)
VH: QMQLVQSGPEVKKPGTSVKVSCKASGFTFTDYSMNWVRQARGQRLEWIGFIRNKANDYTTEYSASVKGRVTITRDMSTSTAYMELSSLRSEDTAVYYCARYPRYHAMDSWGQGTSVTVSS
VL: DIQMTQSPSSLSASVGDRVTITCRASQSISNNLHWYQQKPGKAPKLLIKYVFQSISGVPSRFSGSGSGTDFTFTISSLQPEDFATYYCQQSNSWPLTFGGGTKVEIK
notes: also called clone G5; anti-EphA2 antibody G5

Kd [5]: 5.7 nM
koff [5]: 0.0037 s⁻¹
kon [5]: 650000 M⁻¹ s⁻¹
Fold Difference (vs 4H5) [6]: 32 fold
B6: VH VL 2A4 scFv (scFv)
scFv: QVQLLESGGGLVQPGGSLRLSCAASGFTFSSYTMSWVRQAPGQALEWMGTISSRGTYTYYPDSVKGRFTISRDNAKNSLYLQMNSLRAEDTAVYYCAREAIFTHWGRGTLVTVSSGGGGSGGGGSGGGGSDIQLTQSPSSLSASVGDRVTITCKASQDINNYHSWYQQKPGQAPRLLIYRANRLVDGVPDRFSGSGYGTDFTLTINNIESEDAAYYFCLKYNVFPYTFGQGTKVEIK
notes: FLAG and His tags as for 4H5 scFv

Kd [5]: 180 nM
koff [5]: 0.018 s⁻¹
kon [5]: 100000 M⁻¹ s⁻¹
Fold Difference (vs 4H5) [6]: 1 fold
B7: 4H5 VH-VL scFv humanized clone (scFv)
scFv: B6 scFv with R54G, H104Y, H163L, N222D
notes: Expressed with a C-terminal FLAG tag and His tag; also called 4H5 scFv; scFv 4H5

Kd [5]: 7.8 nM
koff [5]: 0.0041 s⁻¹
kon [5]: 520000 M⁻¹ s⁻¹
Fold Difference (vs 4H5) [6]: 23 fold
B8: VH VL 12E2 scFv (scFv)
scFv: B6 scFv with H104Y, H163L, V185F, N222D, V223R
notes: as for B6

Kd [5]: 7.3 nM
koff [5]: 0.0041 s⁻¹
kon [5]: 560000 M⁻¹ s⁻¹
Fold Difference (vs 4H5) [6]: 25 fold
B9: VH VL 2E7 scFv (scFv)
scFv: B6 scFv with H163G, V223R
notes: as for B6

Kd [5]: 870 nM
koff [5]: 0.03 s⁻¹
kon [5]: 34000 M⁻¹ s⁻¹
Fold Difference (vs 4H5) [6]: -4.8 fold
B10: parental anti-EphA2 scFv EA2 (scFv)
scFv: DVKLVESGGGLVKPGGSLKLSCAASGFTFSSYTMSWVRQTPEKRLEWVATISSGGTYTYYPDSVKGRFTISRDNAKNTLYLQMSSLKSEDTAMYYCTREAIFTYWGQGTLVTVSAGGGGSGGGGSGGGGSDIKMTQSPSSMYASLGERVTITCKASQDINNYLSWFQQKPGKSPKTLIYRANRLVDGVPSRFSGSGSGQDYSLTISSLEYEDMGIYYCLKYDEFPYTFGGGTKLEIK
notes: The murine EA2 variable regions were cloned in the same manner as the 4H5 scFv (VH, linker, VL, FLAG, His); also called EA2 scFv; not shown: C-terminal FLAG tag and His tag
